Bridge positions count the residues as written; N and C are the ends. Side chains are listed from the residue outwards. Ends that are not written are not given here. * marks the point of attachment. Hexanoyl(6-maleimido) = O=C1C=CC(=O)N1CCCCCC(=O)*; reversible prodrug linker = not defined here
Assays:
[1] = molecular target: T1, NPR-B expressed endogenously on NIH-3T3 cells (Murine Embryo Fibroblast cell line) (mouse (endogenous in the murine NIH-3T3 …, UniProt Q6VVW5 17-1047)); experiment: cell-based or functional assay
T1 sequence (looked up): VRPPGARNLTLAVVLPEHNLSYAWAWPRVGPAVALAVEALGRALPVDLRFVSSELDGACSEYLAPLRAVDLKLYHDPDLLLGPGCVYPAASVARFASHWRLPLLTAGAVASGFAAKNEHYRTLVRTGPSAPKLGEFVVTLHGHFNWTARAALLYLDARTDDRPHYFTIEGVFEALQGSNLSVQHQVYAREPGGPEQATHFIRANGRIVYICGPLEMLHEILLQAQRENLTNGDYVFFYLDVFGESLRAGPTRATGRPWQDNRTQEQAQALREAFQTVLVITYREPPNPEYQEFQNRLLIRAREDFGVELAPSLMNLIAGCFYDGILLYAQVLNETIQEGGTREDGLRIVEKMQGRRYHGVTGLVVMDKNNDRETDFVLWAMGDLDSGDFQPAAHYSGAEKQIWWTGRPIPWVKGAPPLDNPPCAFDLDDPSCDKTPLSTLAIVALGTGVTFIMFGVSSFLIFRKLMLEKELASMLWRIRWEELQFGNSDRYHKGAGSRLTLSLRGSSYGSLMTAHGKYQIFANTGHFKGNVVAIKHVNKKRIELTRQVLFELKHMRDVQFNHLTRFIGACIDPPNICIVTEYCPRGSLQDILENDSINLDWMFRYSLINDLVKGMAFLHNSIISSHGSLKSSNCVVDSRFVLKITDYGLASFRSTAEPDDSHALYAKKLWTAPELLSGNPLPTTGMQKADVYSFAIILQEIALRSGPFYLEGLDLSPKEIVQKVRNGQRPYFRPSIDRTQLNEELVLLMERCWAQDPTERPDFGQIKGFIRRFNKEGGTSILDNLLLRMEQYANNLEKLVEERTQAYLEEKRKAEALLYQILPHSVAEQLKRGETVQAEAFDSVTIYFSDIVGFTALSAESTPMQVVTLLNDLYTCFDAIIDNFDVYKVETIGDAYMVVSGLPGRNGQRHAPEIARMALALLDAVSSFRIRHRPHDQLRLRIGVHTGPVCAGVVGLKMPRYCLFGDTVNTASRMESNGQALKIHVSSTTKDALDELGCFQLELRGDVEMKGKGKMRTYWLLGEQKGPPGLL

[2] = molecular target: T1, NPR-B expressed endogenously on NIH-3T3 …; experiment: cell-based or functional assay; remark: listed apart in the source
[3] = molecular target: T2, permanent N-terminal CNP-34 PEG 5 kDa conjugate 14e
T2 chain: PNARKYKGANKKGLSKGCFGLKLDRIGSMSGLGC

[4] = molecular target: T3, permanent Lys26 CNP-38 PEG4x10 kDa conjugate 12g
T3 chain: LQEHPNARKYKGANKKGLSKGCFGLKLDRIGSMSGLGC

[5] = molecular target: T4, permanent N-terminal CNP-38 PEG 5 kDa conjugate 15e
T4 chain: T3 chain

B1: permanent Lys26 CNP-38 PEG4x10 kDa conjugate 12g (peptide)
peptide: LQEHPNARKYKGANKKGLSKGCFGLK(branched PEG 4x10 kDa)LDRIGSMSGLGC
modifications: disulfide 22-38
With B1 the “EC50 compound/EC50 CNP-38 (cGMP stimulation in NIH-3T3 cells, residual NPR-B activity)” value [1] was greater than 100 ratio.

B2: permanent Lys26 CNP-38 PEG 5 kDa conjugate 19e (peptide)
peptide: T3 chain
modifications: 5 kDa PEG stably attached through a maleimidohexanoyl group at the side chain of Lys26 (ring lysine); disulfide Cys22-Cys38
In the case of B2, the “EC50 compound/EC50 CNP-38 (cGMP stimulation in NIH-3T3 cells, residual NPR-B activity)” value [1] is reported as greater than 100 ratio.

B3: Released CNP-38 (isolated by RP-HPLC after 7 d incubation of 11i under physiological conditions) (peptide)
peptide: T3 chain
modifications: disulfide 22-38
For B3, the “EC50 compound/EC50 CNP-38 (cGMP stimulation in NIH-3T3 cells)” value [2] was 1 ratio.

B4: reversible Lys26 CNP-38 PEG4x10 kDa conjugate 11i (peptide)
peptide: LQEHPNARKYKGANKKGLSKGCFGLK([reversible prodrug linker-branched PEG 4x10 kDa])LDRIGSMSGLGC
modifications: disulfide 22-38; reading uncertain
For B4, the “EC50 compound/EC50 CNP-38 (cGMP stimulation in NIH-3T3 cells, residual NPR-B activity)” value [1] was greater than 100 ratio.

B5: recombinant human Neutral Endopeptidase (NEP) (protein)
chain: YDDGICKSSDCIKSAARLIQNMDATTEPCTDFFKYACGGWLKRNVIPETSSRYGNFDILRDELEVVLKDVLQEPKTEDIVAVQKAKALYRSCINESAIDSRGGEPLLKLLPDIYGWPVATENWEQKYGASWTAEKAIAQLNSKYGKKVLINLFVGTDDKNSVNHVIHIDQPRLGLPSRDYYECTGIYKEACTAYVDFMISVARLIRQEERLPIDENQLALEMNKVMELEKEIANATAKPEDRNDPMLLYNKMTLAQIQNNFSLEINGKPFSWLNFTNEIMSTVNISITNEEDVVVYAPEYLTKLKPILTKYSARDLQNLMSWRFIMDLVSSLSRTYKESRNAFRKALYGTTSETATWRRCANYVNGNMENAVGRLYVEAAFAGESKHVVEDLIAQIREVFIQTLDDLTWMDAETKKRAEEKALAIKERIGYPDDIVSNDNKLNNEYLELNYKEDEYFENIIQNLKFSQSKQLKKLREKVDKDEWISGAAVVNAFYSSGRNQIVFPAGILQPPFFSAQQSNSLNYGGIGMVIGHEITHGFDDNGRNFNKDGDLVDWWTQQSASNFKEQSQCMVYQYGNFSWDLAGGQHLNGINTLGENIADNGGLGQAYRAYQNYIKKNGEEKLLPGLDLNHKQLFFLNFAQVWCGTYRPEYAVNSIKTDVHSPGNFRIIGTLQNSAEFSEAFHCRKNSYMNPEKKCRVW
For B5, the “half life norm. [h] (in vitro NEP cleavage assay)” value (shortened to “half life norm. [h]”) [3] was “Almost no proteolysis after 4 days”, the “half life norm. [h]” value [4] was “Almost no proteolysis after 4 days” and the “half life norm. [h]” value [5] was “Almost no proteolysis after 4 days”.

B6: reversible Lys26 CNP-38 PEG2x20 kDa conjugate 10f (peptide)
peptide: LQEHPNARKYKGANKKGLSKGCFGLK([reversible prodrug linker-branched PEG 2x20 kDa])LDRIGSMSGLGC
modifications: disulfide 22-38; reading uncertain
In the case of B6, the “EC50 compound/EC50 CNP-38 (cGMP stimulation in NIH-3T3 cells, residual NPR-B activity)” value [1] is reported as greater than 100 ratio.

B7: permanent N-terminal CNP-38 PEG 5 kDa conjugate 15e (peptide)
peptide: {PEG 5 kDa-Hexanoyl(6-maleimido)}-LQEHPNARKYKGANKKGLSKGCFGLKLDRIGSMSGLGC
modifications: disulfide 22-38
B7 was tested, and the “EC50 compound/EC50 CNP-38 (cGMP stimulation in NIH-3T3 cells, residual NPR-B activity)” value [1] was greater than 5 ratio.

Source: patent US20190008977A1 (ASCENDIS PHARMA GROWTH DISORDERS A S, published 2019)
